The text below walks through data of patent publication US20140112936A1.

Experiment [1] concerns the target gp41-inter (HIV-1 clade A isolate 92UG037.8). Briefly: SPR, gp41-inter immobilized on CM5 chip, Fab as analyte, 1:1 Langmuir.
Experiment [2] deals with GCN4-gp41-inter (HIV-1 clade A isolate 92UG037.8 (gp41 part)). Briefly: SPR, GCN4-gp41-inter immobilized on CM5 chip, Fab as analyte, 1:1 Langmuir. (In general: Surface plasmon resonance follows binding to a sensor surface in real time, without labels.)
Experiment [3] concerns the target gp41-inter (HIV-1 clade A isolate 92UG037.8). Briefly: SPR, gp41-inter immobilized on CM5 chip, Fab as analyte, 1:1 Langmuir (single curve).
Experiment [4] addresses GCN4-gp41-inter (HIV-1 clade A isolate 92UG037.8 (gp41 part)). Briefly: SPR, GCN4-gp41-inter immobilized on CM5 chip, Fab as analyte, 1:1 Langmuir (single curve).

By Kd is commonly meant the equilibrium constant for the complex coming apart. The koff is the first-order rate constant of dissociation. The low end stands for a long-lived complex, the high end for a short-lived complex. A word on the kon: it is a measure of how fast the partners come together. Lower therefore signals slower complex formation. Take Z13e1 Fab: in experiment [1], the Kd is 97.7 nM, the koff came to 0.00548 s⁻¹ and the kon was 56000 M⁻¹ s⁻¹. In experiment [2], this substance returned a Kd of 34 nM, an off-rate constant (koff) of 0.00289 s⁻¹ and a kon of 85000 M⁻¹ s⁻¹.
With 2F5 Fab, in experiment [1], the Kd stood at 0.415 nM, the off-rate constant (koff) was 0.00019 s⁻¹ and the on-rate (kon) is 457000 M⁻¹ s⁻¹. In experiment [2], this substance displayed a dissociation constant Kd of 0.317 nM, an off-rate constant (koff) of 0.000158 s⁻¹ and a kon of 498000 M⁻¹ s⁻¹.
4E10 Fab: in experiment [3], the equilibrium dissociation constant (Kd) was 8.85 nM, the koff was determined as 0.000235 s⁻¹ and the kon is 26600 M⁻¹ s⁻¹. In experiment [4], this substance yielded an equilibrium dissociation constant (Kd) of 4.86 nM, a koff of 0.000237 s⁻¹ and an association rate constant (kon) of 48800 M⁻¹ s⁻¹.
